From patent publication US7527809B2, “Polyhydroxyalkanoate-containing magnetic structure, and manufacturing method and use thereof” (Canon Kabushiki Kaisha, priority 2003, dated 2009)

Assay: PHA synthetic enzyme activity (CoA release, 5,5'-dithiobis-(2-nitrobenzoic acid))
Format: biochemical
Conditions: purified enzymes, Table 1
Source text: Measurement of activity of PHA synthetic enzyme may be performed by using various known methods. For example, the measurement may be performed by the following method that is based on a measuring principle in that CoA released during polymerization of 3-hydroxyacyl CoA by the catalytic action of PHA synthetic enzyme to obtain PHA forms a color with 5,5′-dithiobis-(2-nitrobenzoic acid). Reagent 1: bovine serum albumin (manufactured by Sigma) dissolved in 0.1 M Tris hydrochloride buffer (pH 8.0) 3.0 mg/ml; Reagent 2: 3-hydroxyoctanoyl CoA dissolved in 0.1 M Tris hydrochloride buffer (pH 8.0) in 3.0 mM; Reagent 3: Trichloroacetic acid dissolved in 0.1 M Tris hydrochloride buffer (pH 8.0) in 10 mg/ml; Reagent 4: 5,5′-dithiobis-(2-nitrobenzoic acid) dissolved in 0.1 M Tris hydrochloride buffer (pH 8.0) in 2.0 mM. First reaction (PHA synthesis reaction): 100 μl of Reagent 1 is added to 100 μl of a sample (enzyme) solution and mixed. […] 500 μl of Reagent 4 is added to 500 μl of the resultant supernatant and the resultant is incubated at 30° C. for 10 minutes and then measured for optical density (absorbance) at 412 nm. […]
The activity of each purified enzyme was measured according to the method described above. Further, protein concentration in the sample was determined using a micro BCA protein assay reagent kit (available from Pierce Chemical Inc.). […]

B1: Purified enzyme solution (2): purified PHA synthetic enzyme YN2-C1 from pYN2-C1 (protein)
chain: MSNKSNDELKYQASENTLGLNPVVGLRGKDLLASARMVLRQAIKQPVHSVKHVAHFGLELKNVLLGKSGLQPTSDDRRFADPAWSQNPLYKRYLQTYLAWRKELHDWIDESNLAPKDVARGHFVINLMTEAMAPTNTAANPAAVKRFFETGGKSLLDGLSHLAKDLVHNGGMPSQVNMGAFEVGKSLGVTEGAVVFRNDVLELIQYKPTTEQVYERPLLVVPPQINKFYVFDLSPDKSLARFCLRNNVQTFIVSWRNPTKEQREWGLSTYIEALKEAVDVVTAITGSKDVNMLGACSGGITCTALLGHYAAIGENKVNALTLLVSVLDTTLDSDVALFVNEQTLEAAKRHSYQAGVLEGRDMAKVFAWMRPNDLIWNYWVNNYLLGNEPPVFDILFWNNDTTRLPAAFHGDLIELFKNNPLIRPNALEVCGTPIDLKQVTADIFSLAGTNDHITPWKSCYKSAQLFGGNVEFVLSSSGHIQSILNPPGNPKSRYMTSTEVAENADEWQANATKHTDSWWLHWQAWQAQRSGELKKSPTKLGSKAYPAGEAAPGTYVHER
modifications: Pseudomonas cichorii YN2; FERM BP-7375
- Activity: 2.1 U/ml
- Relative activity: 4.1 U/mg protein
